Measured values: paper PMC10830420, “Structures, functions and adaptations of the human LINE-1 ORF2 protein” (Nature, 2023)

Test system: Nc1ncnc2c1ncn2[C@H]1C[C@H](O)[C@@H](COP(=O)(O)OP(=O)(O)OP(=O)(O)O)O1
Assay: Single nucleotide (dATP) incorporation kinetics, HERV-K RT
Type: biochemical, human
Details: 20-nt DNA primer, HERV-K RT 12 nM
Experimental: Extended Data Fig. 5 Comparative enzymology of ORF2p RT with HIV-1 and HERV-K. a, Single nucleotide incorporation kinetic curves and parameters of dATP with 36-nt RNA or DNA template and 20-nt DNA primer with ORF2p core (33 nM), HIV-1 RT (4 nM) and HERV-K RT (12 nM). For each enzyme, Michaelis-Menten parameter kcat/KM is nearly identical on both templates (n = 3 (DNA template) and n = 4 (RNA template) independent samples over 2 independent experiments; data represented as mean ± SD). b, Comparison of HIV-1 RT and ORF2p in extension of very short (5–10 nt) primers, pre-annealed to DNA and RNA templates. ORF2p extends all DNA and RNA primer lengths, with somewhat reduced efficiency at 5 nt and, to a lesser extent, 6 nt. […] ORF2p also makes NTA (+) and template jumping/switching (##) larger products; more visible on longer exposure. […] When all products are quantified, HIV-1 extends 21–37% of primers, and this is roughly halved by the heparin trap; ORF2p extends ~10–18% of primers and is unaffected by the trap. […] Asterisk (*) Cy5-5’-label on primer. n = 1 quantified samples shown representative of two independent experiments. […]

Substance: HERV-K RT (Homo sapiens)
- Km (other: DNA template 36-nt): 4.3 ± 0.1 nM
- Km (other: RNA template 36-nt): 9.5 ± 0.1 nM
